Experiment [1] concerns the target hTIGIT mutant L73A (human) (UniProt Q495A1). Nature of the experiment: SPR (BIACORE) KD normalized to WT, N=2. (SPR reads the build-up and loss of mass on a sensor chip optically.)
Experiment [2] addresses hTIGIT mutant H76A (human) (UniProt Q495A1). Nature of the experiment: SPR (BIACORE) KD normalized to WT, N=2.
For experiment [3], the target named is hTIGIT mutant L73A (human) (UniProt Q495A1). Put plainly: SPR (BIACORE), N=2.
Experiment [4] has as its target hTIGIT mutant H76A (human) (UniProt Q495A1). Put plainly: SPR (BIACORE), N=2.
Experiment [5] addresses hTIGIT mutant N70A (human) (UniProt Q495A1). Nature of the experiment: SPR (BIACORE) KD normalized to WT, N=2.
Experiment [6] addresses hTIGIT mutant Y113A (human) (UniProt Q495A1). Put plainly: SPR (BIACORE) KD normalized to WT, N=2.
Experiment [7] addresses hTIGIT mutant Q53A (human) (UniProt Q495A1). Put plainly: SPR (BIACORE) KD normalized to WT, N=2.
The target in experiment [8] is hTIGIT mutant N70A (human) (UniProt Q495A1). Nature of the experiment: SPR (BIACORE), N=2.
Sequence of hTIGIT mutant N70A (human) (Q495A1 22-141 N70A limits assumed): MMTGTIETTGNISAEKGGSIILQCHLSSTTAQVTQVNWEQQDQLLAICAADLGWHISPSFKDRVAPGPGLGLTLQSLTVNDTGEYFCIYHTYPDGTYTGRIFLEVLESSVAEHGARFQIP
Experiment [9] has as its target hTIGIT mutant Y113A (human) (UniProt Q495A1). Nature of the experiment: SPR (BIACORE), N=2.
For experiment [10], the target named is hTIGIT mutant Q53A (human) (UniProt Q495A1). Put plainly: SPR (BIACORE), N=2.
Sequence of hTIGIT mutant Q53A (human) (Q495A1 22-141 Q53A limits assumed): as the sequence (Q495A1 22-141 N70A limits assumed) above, with Q32A, A49N counted along it

Bounds are passed on as bounds.

Sequence of hTIGIT mutant Y113A (human) (Q495A1 22-141 Y113A limits assumed): as the sequence (Q495A1 22-141 N70A limits assumed) above, with A49N, Y92A counted along it
Sequence of hTIGIT mutant H76A (human) (Q495A1 22-141 H76A limits assumed): as the sequence (Q495A1 22-141 N70A limits assumed) above, with A49N, H55A counted along it
Sequence of hTIGIT mutant L73A (human) (Q495A1 22-141 L73A limits assumed): as the sequence (Q495A1 22-141 N70A limits assumed) above, with A49N, L52A counted along it

B1: h6B2.L2H5 (antibody, V domains shown)
VH: EVTLKESGPALVKPTQTLTLTCTFSGFSLSTYGMGVSWIRQPPGKALEWLASIWWNGNTYYNPSLKSRLTITKDTSKNQVVLTMTNMDPVDTATYYCAHTGGAVITWFAYWGQGTLVTVSS
VL: DIQMTQSPSSLSASVGDRVTITCKASQSVGKNIAWYQQKPGKAPKLLIYYASNRYTGVPSRFSGSGSGTDFTFTISSLQPEDIATYYCQHIYNSPYPFGQGTKVEIK
The term Kd denotes a measure of binding affinity in units of concentration. Take B1: the Binding affinity drop vs. WT in experiment [1] and in experiment [2] was above 143 fold each time. Also, the Kd in experiment [3] and in experiment [4] was above 100 nM each time.

B2: 4.1A4.C96S.Q1E (antibody, V domains shown)
VH: EVQLVQSGSELKKPGASVKVSCKASGYTLTNYPMNWVRQAPGRGLEWMGWINTNTGSPAYAQDFTERFVFSLDTSVTTAYLQISSLKAEDTAVYYCARTAITSVYHFDYWGQGTLVTVSS
VL: DIQLTQSPSFLSASVGDRVTITCRASQGISSYLAWYQQKPGKAPRVLIYGATTLQSGVPSRFSGSESGTEFTLTISSLQPEDLATYYCQKLNSHPSSFGQGTKVEIK
As to B2, the Binding affinity drop vs. WT in experiment [5], in experiment [6] and in experiment [7] was above 16.2 fold in each case. The Kd in experiment [8], in experiment [9] and in experiment [10] was above 500 nM in each case.

B3: 7.4A3.C96S.Q1E (antibody, V domains shown)
VH: EVQLVQSGSDLKKPGASVRVSCKASGYTFTSYPMNWVRQAPGHGLEWMGWINTNTGNPTYVQGFTGRFVFSLDTSVNTAYLQISSLKAEDTAVYFCARTGGHTYDSYAFDVWGQGTMVTVSS
VL: DIQLTQSPTFLSASVGDRVTITCRASQVISSSLAWYQQNPGKAPKLLIYAASTLQSGVPSRFSGSGSGTEFTLTISSLQPEDFVTYYCQHLHGYPSNFGQGTKVEIK
For B3, the Binding affinity drop vs. WT in [6] and in experiment [7] was above 56 fold in each case. For the same molecule, the Kd in experiment [9] and in experiment [10] was above 100 nM throughout.

Values taken from patent US20220064286A1.
